Measurements taken from the nanobody polyreactivity screen of Harvey et al. (2022).

Assay: yeast display, Sf9 membrane polyspecificity reagent, FACS + sequencing; frameworks hold sequencing errors
Outline: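 A nanobody's polyreactivity label depends on the gate it was sorted from. Yeast display cells were stained with 10% biotinylated, detergent-solubilized Sf9 membrane reagent for 1 hour at 4 °C, enriched on streptavidin microbeads and sorted by FACS. The low and high (top ~1%) gates were set on anti-HA fluorescence for expression and streptavidin fluorescence for reagent binding.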

Row | Sequence | polyreactivity (PSR sort gate)
1 | QVQLVESGGCLVQAGGSLRLSCAASGSTFGGNAMGWYRQAPGKERELVAAISTSGGSTYYADSVKGRFTISRDNAKNTVYLQMNSLKPEDTAVYYCNAVRIGGAPRSRFYDWGQCTQVTVSS | high polyreactivity
2 | QVQLVESGGCLVQAGGSLRLSCAASGSTFHYNAMGWYRQAPGKERELVATISWSGGSTYYADSVKGRFTISRDNAKNTVYLQMNSLKPEDTAVYYCAARYSGYRGSFYGRHGGKYYYWGQGTQVTVSS | high polyreactivity
3 | QVQLVESGGCLVQAGGSLRLSCAASGSTFPAYAMGWYRPAPGKERELVAAISRSGGSTYYADSVKGRFTISRDNAKNTVYLQMNSLKPEDTAVYYCAARAAYSYDDGYWGQGTQVTVSS | high polyreactivity
4 | QVQLVESGGCLVQAGGSLRLSCAASGSTFWSYAMGLYRQAPGKARELVAVIYRGGSTNYADSVKGRFTISRDNAKNTVYVQMNSLKREDTAVYYCASRYKTAEYYYWGQGTQVTVSS | high polyreactivity
5 | QVQLVESGGCLVQAGGSLRLSCAASGSTIYAMGWYRQAPGKERELVAGINRSGTRTYYADSVKGRFTISRDNAKNTVYLQMNSLKPEDTAVYYCAALVYRPTYGYIFDYWGQGTQVTVSS | high polyreactivity
6 | QVQLVESGGCLVQAGGSLRLSCASSGRTFRRYTMGWYRQAPGKETELVAAITSGGRTNYADSVKGRFTISRDNAKNTVYLQMNSLKPEDTAVYYCNAQNEIWRVTFSPYDRWGYDYWGQGTQVTVSS | low polyreactivity
7 | QVQLVESGGCLVQAGGSLRLSCASSGSTIGGYAMGWYRQAPGKERELVAAITWNGGRTYYADSVKGRFTISRDNAKNTVYVQMTSLKQEDTAVYYCATLNLSRSKRVSGGGYWGQGTQVTVSS | high polyreactivity
8 | QVQLVESGGCLVQAGGSLRLSCASTGSIIYWYTMGWYRQAHGKDRELVAASSSIDGNTYYADSVKGRFTISRDNAKNTVYLQMNSLKPEDTAVYYCPAAYYNTDYYYWGQGTQVTVSS | low polyreactivity
9 | QVQLVESGGCLVQAGGSLRLSSAASGRTFRYYAMGSYRQAPGKERELVAAITVTVTSTFYADSVKGRFTISRDNAKNTVYLQMNSLKPEDTAVYYCAVPGATSYFPDDSWGQGTQVTVSS | low polyreactivity
10 | QVQLVESGGCLVQAGGSQRLSCAASGIIFEGYAMRWYRQAPGRERELVAAISQSGGSTRYADSVKGRFTISRDNAKNTVYLQMNRLKAEDTAVYYCAKEVWNWGPYYYWGQGSQVTVSS | low polyreactivity
11 | QVQLVESGGCLVQAGGTLRLSGAASGRTFRADGMGWCRQPPGKEWELVAVISWRDGSTFYADSVQGRFTISRDTAKNTVYLQMNSLKPEDTAVYYCNKASQLYYIQGTYSYGYWGQGTQVTVSS | low polyreactivity
12 | QVQLVESGGCLVQEGGSLRLSCAASGITFYLYAMGWYSQGPGKERELVATISRSGGSTYADSVKGRFTISRDNAKNNVYLQRNSLKPEDTAVDYCNADGWYGYWGQGTQVTVSS | low polyreactivity
13 | QVQLVESGGCLVQEGGSLRLSCAASGSTVTYYDMGWYRQAPGKERELVATIDSTTRTYYADSVKGRFTISRDNAKNTVYLQMNSLKPEDTAVYYCAADMTWGYFYYLFYRYDYWGKGTQVTVSS | low polyreactivity
14 | QVQLVESGGDLVQAGGSLRLSCAASGSIFYINAMGWYRQAPGKERELVASISYSGTSTYYADSVKGRFTISRDNAKNTFFLQMNSLKPEDTAVYYCNAEDTAGAGDGYWGEGTQVTVSS | low polyreactivity
15 | QVQLVESGGDLVQAGGSLRLSCAATGFTFDYYAMGWYRQAPGKEREFVAAISRSGGRTYYADSVKGRFTISRDNAKNTVYLQMNSLKQEDTAVYYCAAGFVGERFDYWGQGTQVTVSS | high polyreactivity
16 | QVQLVESGGDLVQAGGSLRLSCGASGFIFDGYAMGWYRQAPGKERELVAAISSSGGRTHYADSVKGRFKISRDNAMNTVYLQMNSLKAEDTAVYYCAATVRGKRSTYDYWGQGTQVTVSS | high polyreactivity
17 | QVQLVESGGFLVQAGGSLRLSCAASGFTFAKYAMGWSRQAPRKERELVAVITSSGGRTYYADSVKARFTISRDTAKNTVYLQMISLKPEDTAVYYCNAGKYVYATSQYDYWGQGTQVTVSS | high polyreactivity
18 | QVQLVESGGFLVQAGGSLRLSCAASGSTSYNYVMGWYRQAPRKERELVAGITWSDDITYYADSVKGRFSISRDNAKNTVYLQMNSLKPEDTAVYYCAAEDGPLYWRFPDEMDYWGQGTQVTVSS | low polyreactivity
19 | QVQLVESGGGEVQAGGSLRLSCAASGSIFRFYTMGWSRQAPGTERELVATLARGGSTNYADSVKGRFTISRDTAKNTVYLQMNSLKPEDTAVYYCNVAALYSTYCGYGYDYSGQGTQVTVSS | high polyreactivity
20 | QVQLVESGGGEVQEGGILRLSCAASGSIFSRNSMGWYRQAPGKDRELVAAITWSGGSTYYADSVKGRFTISRDNAKYTVYLLMNSLKPEDTAVYYCNADFAGTPNQYDYWGQGTQVTVSA | high polyreactivity
21 | QVQLVESGGGFDHAGGSLRLSCAAYGSTFVYNAMGWYRQAPGKERELVAAITSTGGNTDYADSVKGRFTISRDNAKNTVYLQMNSLKPEDTAVYYCNARDYYWLGFTYRFDYWGQGTQVTVSS | low polyreactivity
22 | QVQLVESGGGFVQAGASLRLSCAASGRTFYRYAMGWYRQAPGKERQLVAAINWRGGSTSYADSVKGRFTISRDNAKNTVYLQMNSLIPEDTAVYYCNAKFICWYEKGGCNVSKYEYWGQGTQVTVSS | low polyreactivity

Row | Sequence | polyreactivity (PSR sort gate)
23 | QVQLVESGGGFVQAGGSLRISCAASGRTFYPYAMGWYRQAPGKERELVAAISRSGGGTYYADSVKGRFTISRDNAKNTVYLQMNSLKPEDTAVDYCAADDGVAIYDYWGQGTQVTVSS | low polyreactivity
24 | QVQLVESGGGFVQAGGSLRLICAASGSIDYNAMGWYRQAPGKERELVAAITQRGGRTYYADSVKGRFTISRDNAKNTVYLQMNSLKPEDTAVYYCNTKGNYGLGYKNYYWGQGTQVTVSS | high polyreactivity
25 | QVQLVESGGGFVQAGGSLRLSCAASGFTFRYYAMGWYRQAPGKERELVAAISRGGNTYYADSVKGRFTMSRDNAKNTVYLQMNSLKPEDTAVYFCNSAYLYIARHGYWGQGTQVTVSS | high polyreactivity
26 | QVQLVESGGGFVQAGGSLRLSCAASGGIFDVYAMGWYRQAPGKERELVAAISENGGSTYYADSVKGRFTISRDNAKNTVYLQMNSLKPEDTAVYYCAADDVSLSVFSYWAWYDYWGQGSQVTVSS | low polyreactivity
27 | QVQLVESGGGFVQAGGSLRLSCAASGNTFAGNAMGGYRQAPGKERELDAAISRSGVTTRYADSVKGRFTISRDNAKNTVYFQMKSLKPEDTAVSYCNADPRLRETRDYWGQVTQVTVSS | high polyreactivity
28 | QVQLVESGGGFVQAGGSLRLSCAASGRIFLWNAMGWYRQAPGKERELVAGIRWSTGSTYYADSVKGRFTISRDNAKYTVSLQMYSLKRDDTAVYYCNARSLATGSKVPARGYWGQGTQVTVSS | high polyreactivity
29 | QVQLVESGGGFVQAGGSLRLSCAASGRIIGYNAMAWYRQAPGKDRELVAAITTSGGSTYYADSVKGRFTISRDNAKNTVYLQMNSLKPEDTAFYYCARDSLQVFYAYASDDFWGQGTQVTVSS | low polyreactivity
30 | QVQLVESGGGFVQAGGSLRLSCAASGRTFRYYAMGWYIQAPGKERELVASISSSGARTYYADSVKGRFTISRDNAKNTVYLQMNSLNPDDTAVYYCNARYSTTYYGTIYRGMDYWGQGTQVTVSS | high polyreactivity
31 | QVQLVESGGGFVQAGGSLRLSCAASGSIFYYNAMGWYRQAPGKEREFVAAITTSAGSTYYADSVKGRFTISRDNEKNTVYLQMYRLKPEDTAVYYCAASPGRRRRPYASLFRYDYWGQGTQVTVSS | high polyreactivity
32 | QVQLVESGGGFVQAGGSLRLSCAASGSNLGKNTMGWYRQAPGKERELVATISRSGGSTYYADSVKGRFTISRDNAKNTVYLQMNSLKPEDTAVYYCAARAIRSGYYRYDYWGQGTKVTVSS | high polyreactivity
33 | QVQLVESGGGFVQAGGSLRLSCAASGSTFFVYAMGWYRQAPGKERELVASIRWRGSSTYYADSVKGRFTISRDNAKNTVYLQMNSLKPEDTAVYYCAATSYNGYGYWGQGTQVTVSS | high polyreactivity
34 | QVQLVESGGGFVQAGGSLRLSCAASGSTFGTYAMGWYRQAPGKERELVAAISWSGGSTYYADSVKGRFTISRDNAKNTVYLQMNSLKPEDTAVYYCNATSSTPPGMDSWGQGTQVTVSS | low polyreactivity
35 | QVQLVESGGGFVQAGGSLRLSCAASGSTFLVYAMGWYRQAPGKERELVAVIDTGASTNYADSVKGRFTISRDNAKNTVYLQMNSLKPEDTAVYYCAAGFSYFTSVLSLDRYYYWGQGTQVTVSS | low polyreactivity
36 | QVQLVESGGGFVQAGGSLRLSCAASGSTFPVYAMGWYRQAPGKERELVAAISRSGASTYYADSVKGRFTISRDNAKNTVYLQMNSLKPEDTAVYYCARGYQGRLKNEYWGQGTQVNVSS | low polyreactivity
37 | QVQLVESGGGFVQAGGSLRLSCAASGYTFDHNAMGWYRQAPGKERELVAAISLTGSSTYYADSVKGRFTISRDNANNNVYLQMNSLKPEDTAVYYCAAVYHQAFKYKFNYWGQGTQVTVSS | low polyreactivity
38 | QVQLVESGGGFVQAGGSLRLSCAPSGRIFLRNDMGWYRQAPGKEREWVAGISWRGGRTYYADAVKGRFTISRDNAKNTVYLQMNSLKPEDTAVYYCNADKDETSGGKYDSWGQGTQVTVSS | low polyreactivity
39 | QVQLVESGGGFVQAGGSLRLSSAASGRTFDTNAMGWYRQSPGKERELVAAISWSAGRTYYADSVKGRFTISRDNAKNTVYLQMNSLKPEDTAVYYCAADSFTPDYYSHDYCGQGTQVTVSS | low polyreactivity
40 | QVQLVESGGGFVQAGGSLSLSCAASGFTFRRYAMGWYRQAPGKERELVAAITSGGSTNYADSVKGRFTISRDNAKNTVYLQMNSLKPEDTAVYYCNARAGYERYGYWGQGTQVTVSS | high polyreactivity
41 | QVQLVESGGGFVQAGGSVRLSCAASGRIFKYAMGWYIPAPGKERELVAAITHKGGSTYADSEKGRFTISRDNAKTTVYIQLNSRKPEDTAVYYCAAYYYYGKGYRRFDYWGQGTQVTVSS | low polyreactivity
42 | QVQLVESGGGFVQAGVSLRLSCAASGSIFVVYGMGWYRQAPGKERELVAAISGGITNYADSVKGLFTISRDNAKNTVYLLMNSLKPEDTAVYYCATVDGAYQYTYDYWGQGTQVTVSS | low polyreactivity
43 | QVQLVESGGGIDKAGGSLRLSCAPSGGIFIRYAMGWYRQAPGKERELVAGIDSGGGTKYADSVKGRFTISRDNAKNTVYLQMNSLKPEDTAVYYCNGEVSVWPFSYDYWGQGTQVTVSS | low polyreactivity
